Source: US6602687B1, “DNA encoding human ciliary neurotrophic factor and method for producing the protein encoded thereby” (Regeneron Pharmaceuticals, Inc., priority 1989, dated 2003)

What was measured:
[1] = system: Ventral spinal cord neurons; test: Neurofilament (NF) assay in ventral spinal cord neuron cultures; format: cell-based, rat; settings: CNTF 10 ng/ml, NGF 50 ng/ml at plating; day 7
Method: Sprague-Dawley rats (HSD or Zivic-Miller) were used for all experiments. Pregnant rats (E14) were sacrificed as described in 10.1.1.
Spinal cords were removed aseptically from rat embryos as described in 10.1.2. The cord tissues were minced into small pieces and incubated in 0.1% trypsin (GIBCO) and 0.01% deoxyribonuclease type 1 (Sigma) at 37° C. for 20 minutes. Trypsin solution was then removed, rinsed and replaced with medium consisting of 45% Eagle's minimum essential medium (MEM), 45% Ham's nutrient mixture F12 (F12), 5% fetal calf serum (GIBCO), 5% horse serum (GIBCO) glutamine (2 mM), penicillin G (0.5 U/ml), and streptomycin (0.5 ug/ml). […] Total cell number yielded was determined by hemocytometer counting in the presence of trypan blue. […]
After fixation of the cells in 4% paraformaldehyde at 4° C. for 2 hours, the cultures were then permeabilized and blocked according to the procedures described in Doherty et al. (1984, J. Neurochem. 42:1116-1122). Neurofilament protein was detected using a monoclonal antibody RT97 (Wood and Anderton, 1981, Biosci. Rep. 1:263-268) at a 1:1000 dilution. The reaction product was visualized using O-phenylenediamine (OPD) as a substrate and optical density was measured at 490 nm.

[2] = system: Mediodorsal (MD) spinal cord neurons; test: E14 rat mediodorsal spinal cord neuron cultures in defined medium; format: cell-based
Excerpt: Sprague-Dawley rats (HSD) were used for all experiments. Pregnant rats were sacrificed by carbon dioxide asphyxiation, and the embryos were rapidly removed and placed in ice-cold Puck's saline G for further dissection.
Spinal cords were removed aseptically from rat embryos on the 14th day of gestation. The spinal cord was severed caudal to the bulb, freed of sensory ganglia and meninges. The cord was then subdivided into ventral and mediodorsal segments for separate cultures. The cord tissues were minced into small pieces and mechanically dissociated by trituration through a Pasteur pipet in defined culture medium consisting of 50% basal medium Eagle (BME; Gibco) and 50% Ham's nutrient mixture F12 (Gibco) supplemented with glucose (33 mM), glutamine (2 mM, NaHCO3 (15 mM), HEPES (10 mM), insulin (25 μg/ml), transferrin (100 μg/ml) putrescine (60 μM), progesterone (20 nM), Na selenite (30 nM), penicillin G (0.5 μg/ml), streptomycin (0.5 μg/ml), and bovine serum albumin (2.5 μg/ml). Trituration was repeated twice and the supernatants were pooled and filtered through a nylon (Nitex, Tetko) filter (40 μm). Total cell number yielded was determined by hemocytometer counting in the presence of trypan blue. Dissociated ventral cells were then plated at a density of 0.5 million cells/35 mm dish coated with poly-D-lysine (10 μg/ml). Dissociated mediodorsal cells were plated at a density of 1.5 million/35 mm dish coated with poly-D-lysine (10 μg/ml), poly-L-ornithine (10 μg/ml), or poly-L-ornithine with laminin (5 μg/ml). Treatments to these cultures were added at the time of plating. Cultures were maintained at 37° C. in a 95% air/5% CO2 atmosphere at nearly 100% relative humidity. Culture medium was changed every three to four days.

[3] = system: E18-19 rat hippocampal neurons; test: GAD enzyme activity in hippocampal cultures; format: cell-based; settings: recombinant rat CNTF 0.1 ng/ml; 8 days
Method: Hippocampi were dissected from E18-19 rat embryos of Sprague-Dawley rats, and collected in F10 medium. The tissues were minced, rinsed twice with F10 medium (Gibco) and trypsinized with 0.25% trypsin (Gibco) for 20 minutes at 37° C. Trypsin was inactivated by the addition of a serum-containing medium composed of minimal essential medium (MEM) supplemented with fetal calf serum (FCS, 10%), glutamine (2 mM), penicillin (25 U/ml) and streptomycin (25 ug/ml). Dissociated cells obtained by gentle trituration were collected and centrifuged at low speed (500 rpm) for 30 seconds. The centrifugation was repeated twice, and the cell pellets were then resuspended in serum-containing medium. The cells were then plated onto 6 mm wells or 35 mm dishes that were coated with polyornithine (10 ug/ml) and laminin (10 ug/ml). In most of the experiments, the cells were plated at a low density of approximately 71,000 cells/cm^2. […]
GAD enzyme activity was determined according to the method of Kimura and Kuriyama (1975, Jpn J. Pharm. 25:189-195) by measuring the release of ^14CO2 from L-[1-^14C] glutamic acid. […] The incubation was then continued for another 60 minutes. ^14CO2 released was trapped in Hyamine base solution, and was counted. […]

B1: CNTF: ciliary neurotrophic factor; recombinant rat CNTF in Sections 10, 15, 17, purified rat sciatic nerve CNTF in Section 11; see endpoint conditions (protein, UniProt P20294 1-200, looked up)
Ciliary neurotrophic factor: MAFAEQTPLTLHRRDLCSRSIWLARKIRSDLTALMESYVKHQGLNKNINLDSVDGVPVASTDRWSEMTEAERLQENLQAYRTFQGMLTKLLEDQRVHFTPTEGDFHQAIHTLMLQVSAFAYQLEELMVLLEQKIPENEADGMPATVGDGGLFEKKLWGLKVLQELSQWTVRSIHDLRVISSHQMGISALESHYGAKDKQM
increase in NF content versus untreated controls [1]: 2.0 fold
survival of MD neurons ([2]; 20 ng recombinant rat CNTF in 2 μl E. coli extract per ml at plating, by 48 hours): increased survival
μg protein dish ([2]; CNTF 2 μl/ml (recombinant rat, E. coli extract), NGF 50 ng/ml at plating, day 7, Bradford): 120 μg protein dish
protein/dish relative to untreated control and NGF-treated cultures ([2]; recombinant rat CNTF in E. coli extract, day 7): 6 times
maximal increase in GAD enzyme activity [3]: 3.8 fold
